Values quoted from earlier work, collected in article PMC3174036.

Biological target: VEGFR-2 D7 D7 (Homo sapiens) (UniProt P35968)

Kd: 100 µM
Substance: VEGFR-2 D7 D7 (from UniProt P35968)
